Data on 12 molecules can be found in patent US20190270817A1 (Amgen, published 2019).

The term Kd denotes the constant that tells how readily two partners part at equilibrium.

The chains are these.
B1: A-1-003 (20A2.003) x IL-21 (R5A, R76E) homodimer fusion (other, not shown: a dimerising Fc or GST)
heavy: not shown
light: SYELTQPPSVSVSPGQTASITCSGDKLGDKYASWYQQKPGQSPVLVIYQDRKRPSGIPERFSGSNSGNTATLTISGTQAMDEADYYCQAFESSTEVFGGGTKLTVLGQPKAAPSVTLFPPSSEELQANKATLVCLISDFYPGAVTVAWKADSSPVKAGVETTTPSKQSNNKYAASSYLSLTPEQWKSHRSYSCQVTHEGSTVEKTVAPTECS
B2: A-1-003 (20A2.003) x IL-21 (R5E, R76A) homodimer fusion (other, not shown: a dimerising Fc or GST)
heavy: not shown
light: B1 light
B3: A-1-003 (20A2.003) x IL-21 (R9E, R76A) homodimer fusion (other, not shown: a dimerising Fc or GST)
heavy: not shown
light: B1 light
B4: A-1-003 (20A2.003) x IL-21 (R5Q, R76E) homodimer fusion (other, not shown: a dimerising Fc or GST)
heavy: not shown
light: B1 light
B5: A-2-006 (22D4.006) x IL-21 (R5A, R76E) homodimer fusion (other, not shown: a dimerising Fc or GST)
heavy: EVQLVESGGSVVRPGGSLRLSCAASGFTVDDYSMSWVRQVPGKGLEWVSGINWNGGRTRYADAVKGRFTISRDSAKNSLYLQMNSLRAEDTALYYCAREFNNFESNWFDPWGQGTLVTVSSQGQDAHMIRMRQLIDIVDQLKNYVNDLVPEFLPAPEDVETNCEWSAFSCFQKAQLKSANTGNNERIINVSIKKLKEKPPSTNAGRRQKHRLTCPSCDSYEKKPPKEFLERFKSLLQKMIHQHLSSRTHGSEDS
light: SYELTQPPSVSVSPGQTARITCSGDALPKKYAYWYQQKPGQAPVLVISEDAKRPSGIPERFSGSSSGTMATLTISGAQVEDEADYYCYSTDASGNHRVFGGGTKLTVLGQPKAAPSVTLFPPSSEELQANKATLVCLISDFYPGAVTVAWKADSSPVKAGVETTTPSKQSNNKYAASSYLSLTPEQWKSHRSYSCQVTHEGSTVEKTVAPTECS
B6: A-2-006 (22D4.006) x IL-21 (R5E, R76A) homodimer fusion (other, not shown: a dimerising Fc or GST)
heavy: B5 heavy with A126E, E197A
light: B5 light
B7: A-2-006 (22D4.006) x IL-21 (R9E, R76A) homodimer fusion (other, not shown: a dimerising Fc or GST)
heavy: B5 heavy with A126R, R130E, E197A
light: B5 light
B8: A-2-006 (22D4.006) x IL-21 (R5Q, R76E) homodimer fusion (other, not shown: a dimerising Fc or GST)
heavy: B5 heavy with A126Q
light: B5 light
B9: A-3-009 (20C1.009) x IL-21 (R5Q, R76E) homodimer fusion (other, not shown: a dimerising Fc or GST)
heavy: EVQLLESGGGLVQPGGSLRLSCAASGFTFSSYDMSWVRQAPGKGLEWVSLISGGGSQTYYAESVKGRFTISRDNSKNTLYLQMNSLRAEDTAVYFCASPSGHYFYAMDVWGQGTTVTVSSQGQDQHMIRMRQLIDIVDQLKNYVNDLVPEFLPAPEDVETNCEWSAFSCFQKAQLKSANTGNNERIINVSIKKLKEKPPSTNAGRRQKHRLTCPSCDSYEKKPPKEFLERFKSLLQKMIHQHLSSRTHGSEDS
light: DIQMTQSPSSVSASVGDRVTITCRASQGISNWLAWYQQKPGKAPKLLIFAASSLQSGVPSRFSGSGSGTDFTLTISSLQPEDFATYYCQQAESFPHTFGGGTKVEIKRTVAAPSVFIFPPSDEQLKSGTASVVCLLNNFYPREAKVQWKVDNALQSGNSQESVTEQDSKDSTYSLSSTLTLSKADYEKHKVYACEVTHQGLSSPVTKSFNRGEC
B10: A-4-006 (20C1.006) x IL-21 (R5A, R76E) homodimer fusion (other, not shown: a dimerising Fc or GST)
heavy: B9 heavy with Q57N, Q125A
light: B9 light
B11: A-3-009 (20C1.009) x IL-21 (R5E, R76A) homodimer fusion (other, not shown: a dimerising Fc or GST)
heavy: B9 heavy with Q125E, E196A
light: B9 light
B12: A-3-009 (20C1.009) x IL-21 (R9E, R76A) homodimer fusion (other, not shown: a dimerising Fc or GST)
heavy: B9 heavy with Q125R, R129E, E196A
light: B9 light

Where a chain is given by its changes, count along the chain named. Names and notes keep the numbering of the source.

The target in the test is T1, cynomolgus monkey IL-21R, recombinant soluble (FLAG-His or Fc, not stated which) (cynomolgus monkey, UniProt G7Q0S8 41-253).
T1 construct: also called IL-21R Cy
Briefly: ForteBio Octet. Background: Biolayer interferometry detects binding as a change in optical thickness at a sensor tip.
For B1, the Kd is over 300 nM.
Turning to B2, the Kd is over 300 nM.
As for B3, the figure is over 300 nM; as for B4, over 300 nM.
In the case of B5, the Kd is over 300 nM.
B6: the Kd was over 300 nM.
Regarding B7, the Kd is over 300 nM.
For B8, the Kd is over 300 nM.
Under B9 stands over 300 nM; under B10, over 300 nM.
Consider B11, for which the equilibrium dissociation constant (Kd) was over 300 nM.
As for B12, the figure is over 300 nM.
